Laboratory results taken from the Human Domainome abundance scans (Beltran et al. 2025).
± gives the uncertainty stated by the source.

B1: Chromodomain-helicase-DNA-binding protein 5, residues 411 to 463; numbered along this chain, Q8TDI0 (parent)
chain: EEDDHMEFCRVCKDGGELLCCDACPSSYHLHCLNPPLPEIPNGEWLCPRCTCP

Variants of: B1
Assay: abundance fitness (aPCA) (normalised: wild type 0, dead -1); higher = more abundant; growth selection in yeast, the domain comes from the species named
Details: Homo sapiens

Row | Variant | abundance fitness
1 | F8V | -0.152 ± 0.076
2 | F8Q | -0.17 ± 0.051
3 | F8E | -0.135 ± 0.083
4 | F8P | -0.261 ± 0.081
5 | F8L | 0.015 ± 0.065
6 | S27R | -0.056 ± 0.041
7 | S27P | -0.47 ± 0.064
8 | S27E | -0.212 ± 0.076
9 | S27C | -0.035 ± 0.082
10 | S27N | 0.02 ± 0.06
11 | S27G | -0.168 ± 0.061
12 | Y28Q | -0.454 ± 0.062
13 | Y28N | -0.608 ± 0.13
14 | Y28E | -0.853 ± 0.083
15 | Y28T | -0.542 ± 0.063
16 | Y28M | -0.262 ± 0.045
17 | Y28A | -0.466 ± 0.066
18 | Y28H | -0.376 ± 0.12
19 | Y28I | -0.535 ± 0.11
20 | Y28C | -0.653 ± 0.095
21 | Y28F | -0.007 ± 0.046
22 | D3A | 0.028 ± 0.06
23 | D3V | 0.114 ± 0.054
24 | D3E | 0.136 ± 0.082

Row | Variant | abundance fitness
25 | D3R | 0.14 ± 0.04
26 | D3Y | 0.189 ± 0.065
27 | D3F | 0.357 ± 0.045
28 | L30R | -0.018 ± 0.049
29 | L30P | 0.087 ± 0.057
30 | L30V | 0.019 ± 0.042
31 | L30G | 0.002 ± 0.048
32 | L30W | -0.201 ± 0.049
33 | L30N | -0.04 ± 0.044
34 | G15H | -0.159 ± 0.11
35 | G15A | 0.07 ± 0.084
36 | G15L | -0.151 ± 0.064
37 | G15D | 0.098 ± 0.095
38 | G15F | 0.079 ± 0.12
39 | G15E | -0.224 ± 0.13
40 | R10H | -0.028 ± 0.12
41 | R10L | -0.06 ± 0.056
42 | R10G | -0.035 ± 0.053
43 | R10D | -0.119 ± 0.053
44 | R10V | -0.25 ± 0.065
45 | R10P | -0.413 ± 0.088
46 | C24A | -0.637 ± 0.12
47 | C24T | -0.464 ± 0.12
48 | C24H | 0.139 ± 0.13

Row | Variant | abundance fitness
49 | A23P | -0.488 ± 0.22
50 | A23C | -0.018 ± 0.14
51 | P41I | -0.159 ± 0.14
52 | P41D | 0.246 ± 0.12
53 | P41A | -0.144 ± 0.087
54 | P41W | -0.393 ± 0.11
55 | P41L | -0.019 ± 0.059
56 | P41M | -0.262 ± 0.091
57 | P41N | 0.168 ± 0.15
58 | C20H | -0.065 ± 0.094
59 | C20A | 0.071 ± 0.066
60 | C20G | 0.116 ± 0.052
61 | C20T | 0.123 ± 0.073
62 | C20K | 0.01 ± 0.083
63 | C20W | -0.029 ± 0.069
64 | C20P | 0.146 ± 0.073
65 | C20F | -0.05 ± 0.08
66 | L46M | -0.188 ± 0.082
67 | L46T | -0.102 ± 0.058
68 | L46E | -0.025 ± 0.054
69 | L46D | -0.65 ± 0.19
70 | L46Q | -0.063 ± 0.12
71 | L46H | -0.152 ± 0.11
72 | L46N | 0.294 ± 0.12

Row | Variant | abundance fitness
73 | P35C | -0.371 ± 0.078
74 | P35F | -0.24 ± 0.049
75 | P35G | -0.182 ± 0.046
76 | C47H | -0.235 ± 0.2
77 | C47Q | -0.192 ± 0.11
78 | C47Y | -0.929 ± 0.11
79 | C47G | -0.533 ± 0.074
80 | C47W | -0.914 ± 0.067
81 | C47E | -0.853 ± 0.14
82 | C47N | -0.285 ± 0.17
83 | C47A | -0.542 ± 0.077
84 | C47I | -0.009 ± 0.15
85 | C47L | -0.716 ± 0.052
86 | G16I | -0.145 ± 0.32
87 | G16P | -0.832 ± 0.15
88 | G16V | -0.36 ± 0.063
89 | C9I | -1.05 ± 0.25
90 | C9V | -1.09 ± 0.069
91 | C9H | -1.5 ± 0.4
92 | C9L | -0.861 ± 0.078
93 | L37F | -0.21 ± 0.12
94 | L37M | -0.262 ± 0.098
95 | L37S | 0.023 ± 0.074
96 | L37C | -0.299 ± 0.098

Row | Variant | abundance fitness
97 | L37V | -0.135 ± 0.079
98 | H31R | 0.05 ± 0.049
99 | H31N | 0.121 ± 0.069
100 | H31K | -0.029 ± 0.1
101 | H31I | -0.044 ± 0.13
102 | H31T | -0.16 ± 0.1
103 | H31C | -0.421 ± 0.14
104 | H31L | -0.246 ± 0.086
105 | H31F | 0.516 ± 0.14
106 | H31D | 0.072 ± 0.12
107 | E1A | -0.518 ± 0.1
108 | E1G | -0.304 ± 0.044
109 | E1P | -0.803 ± 0.27
110 | I40E | -0.129 ± 0.11
111 | I40G | -0.09 ± 0.098
112 | I40T | 0.113 ± 0.13
113 | I40H | -0.151 ± 0.24
114 | I40P | 0.052 ± 0.079
115 | I40D | -0.534 ± 0.35
116 | I40L | 0.147 ± 0.086
117 | I40W | -0.633 ± 0.39
118 | G43N | 0.039 ± 0.07
119 | G43R | -0.074 ± 0.08
120 | G43V | 0.004 ± 0.066

Row | Variant | abundance fitness
121 | G43C | -0.112 ± 0.087
122 | G43A | 0.047 ± 0.076
123 | G43M | -0.333 ± 0.2
124 | G43Q | 0.039 ± 0.12
125 | G43P | -0.041 ± 0.047
126 | M6D | -0.228 ± 0.095
127 | M6C | -0.069 ± 0.065
128 | M6E | -0.14 ± 0.088
129 | M6R | -0.045 ± 0.056
130 | M6S | -0.233 ± 0.081
131 | M6W | -0.174 ± 0.076
132 | D4L | 0.11 ± 0.042
133 | D4W | 0.005 ± 0.047
134 | D4S | -0.081 ± 0.041
135 | D4K | 0.184 ± 0.047
136 | D4T | 0.216 ± 0.043
137 | H5V | -0.5 ± 0.041
138 | H5L | -0.223 ± 0.041
139 | H5S | -0.197 ± 0.047
140 | H5W | -0.214 ± 0.043
141 | H5T | -0.065 ± 0.038
142 | E44S | 0.031 ± 0.059
143 | E44H | 0.056 ± 0.073
144 | E44F | -0.361 ± 0.085

Row | Variant | abundance fitness
145 | E44Q | 0.041 ± 0.053
146 | C32S | -1.05 ± 0.14
147 | C32K | -0.66 ± 0.14
148 | C32I | -0.979 ± 0.19
149 | K13D | 0.01 ± 0.051
150 | K13G | -0.008 ± 0.051
151 | K13E | 0.142 ± 0.078
152 | K13Y | -0.368 ± 0.12
153 | K13L | -0.206 ± 0.047
154 | K13R | -0.068 ± 0.062
155 | K13I | -0.644 ± 0.22
156 | P38A | 0.358 ± 0.22
157 | P38M | -0.563 ± 0.44
158 | P38F | -0.083 ± 0.21
159 | P38T | -0.198 ± 0.31
160 | L19V | -0.031 ± 0.077
161 | L19W | -0.288 ± 0.089
162 | L19E | -0.346 ± 0.12
163 | L19K | -0.361 ± 0.14
164 | L19S | -0.537 ± 0.15
165 | L19G | -0.571 ± 0.059
166 | L19F | 0.001 ± 0.058
167 | L19P | -1.22 ± 0.38
